Assays:
[1] = tested on: PKGIα (analogue-sensitive C42S/M438G), cGMP-activated; experiment: Chemical genetic phosphoproteomic screen, cGMP-activated PKGIα C42S/M438G versus unactivated control; assay type: biochemical, human PKGIα; substrates in rat heart homogenate
How it was run: (§1)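 Substrates in rat left-ventricle homogenate (20 mg ml) are labelled by engineered Met438Gly PKGIα given a bulky N6-alkylated ATPγS analogue, either as disulfide-activated M438G (oxidized, DTT-free) or as cGMP-activated C42S/M438G. Covalent capture and LC–MS/MS identify sites relative to unactivated kinase.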

[2] = tested on: PKGIα (analogue-sensitive M438G), disulfide-activated; experiment: Chemical genetic phosphoproteomic screen, disulfide-activated PKGIα M438G versus unactivated control; assay type: biochemical, human PKGIα; substrates in rat heart homogenate
How it was run: as §1

[3] = tested on: PKGIα Cys42 interchain disulfide bond; experiment: Dihydrolipoic acid/lipoic acid redox titration of recombinant PKGIα, disulfide dimerization by SDS-PAGE; assay type: physicochemical; details: in vitro, unpublished data
Source text: PhD thesis (2015) by Daniel Stubbert from this lab. We have amended the manuscript so that it now states that the PKGIα Cys42 disulfide bond is reversible and referenced the literature detailing the auranofin experiments described above:
“Reactive oxygen species (ROS) promote formation of a reversible intermolecular disulfide bond between the two subunits of the PKGIα homodimer at Cys424,5.”
Furthermore, in relation to reversibility, we also have unpublished data relating to the thermodynamic stability of the Cys42 interchain disulfide bond in vitro. We have performed a dihydrolipoic acid/lipoic acid redox titration with recombinant PKGIα and analysed the amount of disulfide dimerization by SDS-PAGE. The equilibrium redox potential was determined as approximately −280 mV; a value within the conﬁnes of the cellular redox potenƟal which ranges from ~−350 to –150 mV depending on e.g. the organelle an d stage of the cell cycle (Jones, D. P.
Journal of Internal Medicine 268, 432-448 (2010); Jones, D. P. American Journal of Physiology - Cell […]
consistent with our findings from tissue and cells, and arguably ex actly what would be expected of a protein that is required to rapidly transduce an oxidant signal into a biological response.
--What are the consequences of cys42 oxidation for cGMP activation of PKG? […]

B1: Pfkfb2 pS486 (protein, UniProt Q9JJH5 2-557, looked up)
6-phosphofructo-2-kinase/fruct …: SENSTFSTEDSSSSSYKPHASNLRRAGKKCSWASYMTNSPTLIVMIGLPARGKTYVSKKLTRYLNWIGVPTKVFNLGVYRREAVKSYKSYDFFRHDNEEAMKIRKQCALVALEDVKAYFTEESGQIAVFDATNTTRERRDMILNFAKQNAFKVFFVESVCDDPDVIAANILEVKVSSPDYPERNRENVMEDFLKRIECYKVTYQPLDPDNYDKDLSFIKVMNVGQRFLVNRVQDYIQSKIVYYLMNIHVHPRTIYLCRHGESEFNLLGKIGGDSGLSLRGKQFAQALKKFLEEQEIQDLKVWTSQLKRTIQTAESLGVTYEQWKILNEIDAGVCEEMTYSEIEQRYPEEFALRDQEKYLYRYPGGESYQDLVQRLEPVIMELERQGNVLVISHQAVMRCLLAYFLDKGADELPYLRCPLHIIFKLTPVAYGCKVETITLNVEAVDTHRDKPTHNFPKSQTPVRMRRNSFTPLSSSNTIRRPRNYSVGSRPLKPLSPLRALDMQEGADQPKTQVQQGSAQATEHLQKALEFANGHREVENVLAKHRRPSMASLTLLS
modifications: phosphorylated at S486
log2 fold change cGMP vs Control ([1]; control = PKGIα C42S/M438G): 0.2997 | log2 fold change Disulfide vs Control ([2]; control = PKGIα C42S/M438G): -0.4793

B2: PKGIα: recombinant PKGIα; Cys42 interchain disulfide bond (protein)
chain: MSELEEDFAKILMLKEERIKELEKRLSEKEEEIQELKRKLHKCQSVLPVPSTHIGPRTTRAQGISAEPQTYRSFHDLRQAFRKFTKSERSKDLIKEAILDNDFMKNLELSQIQEIVDCMYPVEYGKDSCIIKEGDVGSLVYVMEDGKVEVTKEGVKLCTMGPGKVFGELAILYNCTRTATVKTLVNVKLWAIDRQCFQTIMMRTGLIKHTEYMEFLKSVPTFQSLPEEILSKLADVLEETHYENGEYIIRQGARGDTFFIISKGTVNVTREDSPSEDPVFLRTLGKGDWFGEKALQGEDVRTANVIAAEAVTCLVIDRDSFKHLIGGLDDVSNKAYEDAEAKAKYEAEAAFFANLKLSDFNIIDTLGVGGFGRVELVQLKSEESKTFAMKILKKRHIVDTRQQEHIRSEKQIMQGAHSDFIVRLYRTFKDSKYLYMLMEACLGGELWTILRDRGSFEDSTTRFYTACVVEAFAYLHSKGIIYRDLKPENLILDHRGYAKLVDFGFAKKIGFGKKTWTFCGTPEYVAPEIILNKGHDISADYWSLGILMYELLTGSPPFSGPDPMKTYNIILRGIDMIEFPKKIAKNAANLIKKLCRDNPSERLGNLKNGVKDIQKHKWFEGFNWEGLRKGTLTPPIIPSVASPTDTSNFDSFPEDNDEPPPDDNSGWDIDF
modifications: intermolecular disulfide bond at Cys42 between the two subunits
equilibrium redox potential of the Cys42 interchain disulfide bond [3]: approximately −280 mV

B3: Wbp11 pS600 (protein, UniProt Q5PQQ2 1-641, looked up)
WW domain-binding protein 11: MGRRSTSSTKSGKFMNPTDQARKEARKRELKKNKKQRMMVRAAVLKMKDPKQIIRDMEKLDEMEFNPVQQPQLNEKVLKDKRKKLRETFERILRLYEKENPDIYKELRKLEVEYEQKRAQLSQYFDAVKNAQHVEVESIPLPDMPHAPSNILIQDIPLPGAQPPSILKKTSAYGPPTRAVSILPLLGHGVPRLPPGRKPPGPPPGPPPPQVLQMYGRKVGFALDLPPRRRDEDMLYSPELAQRGHDDDMSSTSEDDGYPEDMDQDKHDDSTEDSDTDRSDAESDGDEFGHRDDSERDNTEEKKSGLSVRFADMPGKSRKKKKNMKELTPLQAMMLRMAGQEIPEEGREVEEFSEEEDDDDSEDSEAEKPSQKQHKEDSHADGSSAASSQQQAPPQAVPPSQIQAPPMPGPPPLGPPPAPPLRPPGPPTGLPPGPPPGAPPFLRPPGMPGIRGPLPRLLPPGPPPGRPPGPPPGPPPGLPPGPPPRGPPPRLPPPAPPGIPPPRPGMMRPPLVPPLGPAPPGLFPPAPLPNPGVLSAPPSLIQRPKADDASAATIEKKATATISAKPQITNPKAEVTRFVPTALRVRRENKGATAVPQRRSEEDSAVPVAKAAPRSGPSVPVSVQTKDDVYEAFMKEMEGLL
modifications: phosphorylated at S600
log2 fold changes ([1]; Group 1 (cGMP-activated) vs Group 3 (control)): 4.049 | log2 fold changes ([2]; Group 2 (disulfide-activated) vs Group 3 (control)): 2.503

Source: paper PMC5095173, “Disulfide-activated protein kinase G Iα regulates cardiac diastolic relaxation and fine-tunes the Frank–Starling response” (Nature Communications, 2016)
